Positions count from the first letter of the chain named.
B1: unnamed (protein)
chain: MSKVDLWQDATAQAELVRSGEISRTELLEATIAHVQAVNPEINAVIIPLFEKARRESELASGPFAGVPYLLKDLTVVSQGDINTSSIKGMKESGYRADHDAYFVQRMRAAGFVLLGKTNTPEMGNQVTTEPEAWGATRNPWNLGRSVGGSSGGSGAAVAAALSPVAHGNDAAGSVRIPASVCGVVGLKPTRGRISPGPLVTDSDNVAGAAHEGLFARSVRDIAALLDVVSGHRPGDTFCAPTASRPYAQGISENPGSLRVGVLTHNPVGDFALDPECAAAARGAAAALAALGHDVNDAYPEALGDRSFLKDYSTIGDVAIAREIERNGELIGRPLTEDDVEWTSWEMVKRADQVTGRAFAACVDELRYYAGKVERWWEAGWDLLILPTVTRQTPEIGELMLAKGTDLEGRQSAFISGSLQMLAFTVPFNVSGQPAISLPIGMSSDGMPIGVQIVAAYGREDLLLQVAAQLEGALPWVARRPQLLNPSRKIPAA
B2: unnamed (protein)
chain: B1 chain with N125A, G316C
B3: unnamed (protein)
chain: B1 chain with G316C
B4: unnamed (protein)
chain: B1 chain with G316D
B5: unnamed (protein)
chain: B1 chain with G316S
B6: unnamed (protein)
chain: B1 chain with G316A

substrate: Acd (paper fig); settings: 30 °C

In order of rising Km:
1. B6  0.85 mM
2. B5  1.8 mM
3. B3  3.51 mM
4. B1  3.66 mM
5. B2  13.2 mM
6. B4  19 mM

In order of rising kcat:
1. B4  0.14 s⁻¹
2. B6  0.71 s⁻¹
3. B2  1.12 s⁻¹
4. B5  4.83 s⁻¹
5. B3  4.97 s⁻¹
6. B1  9.15 s⁻¹

In order of falling kcat/Km:
1. B5  2680 M⁻¹ s⁻¹
2. B1  2500 M⁻¹ s⁻¹
3. B3  1420 M⁻¹ s⁻¹
4. B6  835 M⁻¹ s⁻¹
5. B2  84.8 M⁻¹ s⁻¹
6. B4  7.37 M⁻¹ s⁻¹

Reference: the PETadex activity labels (doi:10.1074/jbc.m109.041285)
